According to the supplement of paper PMC10065799, “High-throughput profiling of sequence recognition by tyrosine kinases and SH2 domains using bacterial peptide display” (eLife, 2023):

Legend:
[1] = test system: Fer (mouse); assay: phosphorylation enrichment, bacterial display (enrichment ratio); higher = better substrate or ligand; peptides without Tyr show the background
[2] = target: EPHB1 (UniProt P54762); assay: as above
[3] = target: FGFR1 (UniProt P11362); assay: as above
[4] = target: FGFR3 (UniProt P22607); assay: as above
Chain of FGFR3 (P22607 whole entry, looked up): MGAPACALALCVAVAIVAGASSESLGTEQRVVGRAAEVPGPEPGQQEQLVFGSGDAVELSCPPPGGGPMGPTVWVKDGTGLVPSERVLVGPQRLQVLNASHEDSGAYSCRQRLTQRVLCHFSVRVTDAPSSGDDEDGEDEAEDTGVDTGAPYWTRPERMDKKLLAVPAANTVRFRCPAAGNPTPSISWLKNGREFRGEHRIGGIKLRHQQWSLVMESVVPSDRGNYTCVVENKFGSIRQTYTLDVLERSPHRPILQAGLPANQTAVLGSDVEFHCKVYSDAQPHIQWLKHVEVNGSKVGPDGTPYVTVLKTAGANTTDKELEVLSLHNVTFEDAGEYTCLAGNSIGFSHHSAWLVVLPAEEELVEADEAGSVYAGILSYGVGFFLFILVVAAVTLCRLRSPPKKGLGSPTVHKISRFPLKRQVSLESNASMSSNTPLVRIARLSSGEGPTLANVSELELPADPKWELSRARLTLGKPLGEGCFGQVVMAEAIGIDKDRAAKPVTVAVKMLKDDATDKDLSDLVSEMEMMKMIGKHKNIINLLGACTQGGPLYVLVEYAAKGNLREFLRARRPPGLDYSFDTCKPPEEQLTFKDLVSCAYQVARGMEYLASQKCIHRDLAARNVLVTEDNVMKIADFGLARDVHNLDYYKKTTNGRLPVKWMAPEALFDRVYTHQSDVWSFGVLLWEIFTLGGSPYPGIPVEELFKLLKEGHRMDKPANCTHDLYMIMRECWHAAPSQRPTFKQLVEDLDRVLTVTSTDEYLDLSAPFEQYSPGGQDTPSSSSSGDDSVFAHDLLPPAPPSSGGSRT

[5] = target: Hck (UniProt P08631); assay: as above
Chain of Hck (P08631 whole entry, looked up): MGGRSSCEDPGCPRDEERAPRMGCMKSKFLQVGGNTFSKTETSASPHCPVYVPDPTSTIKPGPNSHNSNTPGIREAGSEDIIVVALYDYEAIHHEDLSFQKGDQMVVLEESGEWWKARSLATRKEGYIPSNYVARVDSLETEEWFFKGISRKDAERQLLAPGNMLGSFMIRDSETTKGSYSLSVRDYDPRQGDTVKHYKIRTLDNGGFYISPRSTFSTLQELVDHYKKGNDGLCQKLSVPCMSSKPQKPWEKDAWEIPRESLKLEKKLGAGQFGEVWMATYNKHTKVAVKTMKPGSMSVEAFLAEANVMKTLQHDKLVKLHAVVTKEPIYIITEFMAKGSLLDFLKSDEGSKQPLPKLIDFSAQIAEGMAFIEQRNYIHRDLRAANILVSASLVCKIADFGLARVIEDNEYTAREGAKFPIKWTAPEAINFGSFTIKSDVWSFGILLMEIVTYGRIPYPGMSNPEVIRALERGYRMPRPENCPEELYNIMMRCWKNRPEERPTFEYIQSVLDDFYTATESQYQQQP

[6] = target: Fyn (UniProt P06241); assay: as above
Chain of Fyn (P06241 whole entry, looked up): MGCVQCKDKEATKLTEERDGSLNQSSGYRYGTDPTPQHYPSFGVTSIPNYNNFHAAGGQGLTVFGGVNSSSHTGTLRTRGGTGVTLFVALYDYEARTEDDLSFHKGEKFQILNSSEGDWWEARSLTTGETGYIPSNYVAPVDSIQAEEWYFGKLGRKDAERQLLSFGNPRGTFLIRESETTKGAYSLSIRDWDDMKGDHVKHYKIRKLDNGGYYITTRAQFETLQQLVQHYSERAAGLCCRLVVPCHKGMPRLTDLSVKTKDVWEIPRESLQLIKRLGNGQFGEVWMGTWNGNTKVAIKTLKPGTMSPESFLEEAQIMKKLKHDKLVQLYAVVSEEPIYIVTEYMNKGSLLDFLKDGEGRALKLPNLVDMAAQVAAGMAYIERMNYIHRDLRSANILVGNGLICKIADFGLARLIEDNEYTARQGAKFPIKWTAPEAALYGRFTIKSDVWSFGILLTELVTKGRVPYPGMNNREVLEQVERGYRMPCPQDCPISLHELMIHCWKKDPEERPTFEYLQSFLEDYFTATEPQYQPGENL

[7] = test system: AncSZ; assay: as above
[8] = test system: c-Abl (mouse); assay: as above
[9] = target: MERTK (UniProt Q12866); assay: as above
[10] = test system: c-Src; assay: as above
[11] = target: Jak2 (UniProt O60674); assay: as above
Chain of Jak2 (O60674 whole entry, looked up): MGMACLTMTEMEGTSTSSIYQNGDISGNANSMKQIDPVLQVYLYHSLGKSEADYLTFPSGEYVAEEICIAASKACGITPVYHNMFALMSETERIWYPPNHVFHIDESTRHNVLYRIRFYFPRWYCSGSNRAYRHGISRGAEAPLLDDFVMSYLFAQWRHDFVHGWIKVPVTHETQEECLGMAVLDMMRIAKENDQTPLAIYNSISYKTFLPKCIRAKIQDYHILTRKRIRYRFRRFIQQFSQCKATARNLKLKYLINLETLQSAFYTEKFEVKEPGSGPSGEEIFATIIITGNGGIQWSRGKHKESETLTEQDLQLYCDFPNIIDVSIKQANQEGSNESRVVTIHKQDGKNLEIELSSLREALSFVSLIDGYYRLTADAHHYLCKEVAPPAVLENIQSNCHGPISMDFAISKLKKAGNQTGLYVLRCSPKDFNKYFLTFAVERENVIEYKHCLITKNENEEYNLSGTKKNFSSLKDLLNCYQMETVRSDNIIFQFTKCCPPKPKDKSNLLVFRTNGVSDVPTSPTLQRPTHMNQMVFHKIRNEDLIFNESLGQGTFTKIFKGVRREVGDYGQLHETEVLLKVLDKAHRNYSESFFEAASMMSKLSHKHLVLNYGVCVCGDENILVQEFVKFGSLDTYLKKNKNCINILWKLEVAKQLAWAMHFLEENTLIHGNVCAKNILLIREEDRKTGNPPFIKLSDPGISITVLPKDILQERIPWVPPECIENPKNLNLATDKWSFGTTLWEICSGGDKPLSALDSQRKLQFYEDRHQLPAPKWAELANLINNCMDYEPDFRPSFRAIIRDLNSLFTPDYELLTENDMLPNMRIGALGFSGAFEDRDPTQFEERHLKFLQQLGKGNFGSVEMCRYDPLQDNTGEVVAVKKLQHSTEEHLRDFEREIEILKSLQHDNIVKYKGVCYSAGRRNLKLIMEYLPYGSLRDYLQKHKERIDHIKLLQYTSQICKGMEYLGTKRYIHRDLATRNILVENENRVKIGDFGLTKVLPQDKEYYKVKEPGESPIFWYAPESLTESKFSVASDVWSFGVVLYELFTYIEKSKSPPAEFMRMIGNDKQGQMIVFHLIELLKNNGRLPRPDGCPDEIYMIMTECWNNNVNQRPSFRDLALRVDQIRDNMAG

[12] = target: Fes (UniProt P07332); assay: as above
[13] = target: EPHB2 (UniProt P29323); assay: as above
[14] = target: c-Src SH2; assay: SH2 binding enrichment of the phosphorylated peptide, bacterial display (enrichment ratio); higher = better substrate or ligand; peptides without Tyr show the background
[15] = target: Grb2 SH2 (UniProt P62993); assay: as above
Chain of Grb2 SH2 (P62993 whole entry, looked up): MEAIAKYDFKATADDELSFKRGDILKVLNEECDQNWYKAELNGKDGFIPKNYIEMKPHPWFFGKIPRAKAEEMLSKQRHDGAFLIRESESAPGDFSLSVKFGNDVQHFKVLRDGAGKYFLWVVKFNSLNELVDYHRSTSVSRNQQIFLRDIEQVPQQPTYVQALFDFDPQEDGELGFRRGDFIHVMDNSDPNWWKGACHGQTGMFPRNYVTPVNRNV

[16] = target: SHP2-C SH2; assay: as above
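Wherever SH2 binding enrichment of the phosphorylated peptide, bacterial display is given: peptide library displayed on the E. coli surface as eCPX fusions, selected cells deep-sequenced, score is each peptide's frequency after selection divided by its frequency in the input.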
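Wherever phosphorylation enrichment, bacterial display is given: 11-residue human phosphosite peptides and single-mutation variants displayed on the E. coli surface, counted by deep sequencing, each peptide's frequency after selection divided by its frequency in the unselected input library; frequency after pTyr selection over input frequency; kinase dosed for 20-30% of maximal phosphorylation in three min.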

Chain of FGFR1 (P11362 whole entry, looked up): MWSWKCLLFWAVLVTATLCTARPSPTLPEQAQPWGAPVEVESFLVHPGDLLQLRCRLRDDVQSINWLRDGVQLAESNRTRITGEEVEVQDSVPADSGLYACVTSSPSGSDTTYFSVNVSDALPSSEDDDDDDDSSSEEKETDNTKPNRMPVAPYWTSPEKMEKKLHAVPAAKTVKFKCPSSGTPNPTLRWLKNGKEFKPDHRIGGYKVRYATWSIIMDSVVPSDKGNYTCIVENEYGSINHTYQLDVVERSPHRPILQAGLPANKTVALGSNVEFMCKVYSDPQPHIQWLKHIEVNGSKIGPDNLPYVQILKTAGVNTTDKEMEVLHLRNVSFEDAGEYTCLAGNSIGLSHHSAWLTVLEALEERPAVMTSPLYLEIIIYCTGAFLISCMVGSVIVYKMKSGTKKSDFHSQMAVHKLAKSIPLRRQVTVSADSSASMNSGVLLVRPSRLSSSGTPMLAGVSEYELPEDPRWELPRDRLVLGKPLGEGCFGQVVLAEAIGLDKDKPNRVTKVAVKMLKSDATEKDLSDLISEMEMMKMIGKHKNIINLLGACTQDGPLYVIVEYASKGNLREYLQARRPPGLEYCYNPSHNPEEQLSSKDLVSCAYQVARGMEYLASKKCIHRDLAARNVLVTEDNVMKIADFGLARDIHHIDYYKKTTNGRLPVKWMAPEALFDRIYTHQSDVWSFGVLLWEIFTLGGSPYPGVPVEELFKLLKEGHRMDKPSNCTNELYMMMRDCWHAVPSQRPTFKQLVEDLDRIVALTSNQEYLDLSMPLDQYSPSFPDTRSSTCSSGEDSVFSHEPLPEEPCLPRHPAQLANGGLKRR
Chain of EPHB1 (P54762 whole entry, looked up): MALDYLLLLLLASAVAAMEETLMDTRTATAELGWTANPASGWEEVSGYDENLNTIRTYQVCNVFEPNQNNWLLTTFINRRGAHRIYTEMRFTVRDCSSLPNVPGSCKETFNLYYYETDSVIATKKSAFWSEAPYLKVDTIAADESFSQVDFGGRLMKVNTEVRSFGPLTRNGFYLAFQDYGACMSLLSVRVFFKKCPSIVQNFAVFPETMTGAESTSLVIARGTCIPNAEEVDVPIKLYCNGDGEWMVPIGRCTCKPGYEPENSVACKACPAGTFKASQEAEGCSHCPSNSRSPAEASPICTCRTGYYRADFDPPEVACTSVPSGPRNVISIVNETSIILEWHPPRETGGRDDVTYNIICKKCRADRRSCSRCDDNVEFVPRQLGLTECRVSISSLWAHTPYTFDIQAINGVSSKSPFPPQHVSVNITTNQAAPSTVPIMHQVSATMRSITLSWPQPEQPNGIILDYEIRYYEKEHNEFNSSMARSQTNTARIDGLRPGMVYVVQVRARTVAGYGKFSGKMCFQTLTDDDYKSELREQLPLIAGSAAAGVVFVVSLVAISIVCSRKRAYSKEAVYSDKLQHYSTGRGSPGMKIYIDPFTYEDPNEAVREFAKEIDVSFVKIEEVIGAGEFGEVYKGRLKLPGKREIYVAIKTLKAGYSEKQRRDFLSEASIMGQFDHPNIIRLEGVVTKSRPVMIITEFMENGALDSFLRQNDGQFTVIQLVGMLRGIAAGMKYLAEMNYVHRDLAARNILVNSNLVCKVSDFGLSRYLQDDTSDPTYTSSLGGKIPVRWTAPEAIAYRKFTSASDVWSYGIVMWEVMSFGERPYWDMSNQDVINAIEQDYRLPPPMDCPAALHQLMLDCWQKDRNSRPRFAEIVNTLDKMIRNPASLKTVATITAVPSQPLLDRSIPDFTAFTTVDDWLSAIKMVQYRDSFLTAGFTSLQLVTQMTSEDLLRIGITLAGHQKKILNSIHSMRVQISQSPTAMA

Row | Sequence | phosphorylation enrichment [1] | phosphorylation enrichment [2] | phosphorylation enrichment [3] | phosphorylation enrichment [4] | phosphorylation enrichment [5] | phosphorylation enrichment [6] | phosphorylation enrichment [7] | phosphorylation enrichment [8] | phosphorylation enrichment [9] | phosphorylation enrichment [10] | phosphorylation enrichment [11] | phosphorylation enrichment [12] | phosphorylation enrichment [13] | SH2 binding enrichment [14] | SH2 binding enrichment [15] | SH2 binding enrichment [16]
1 | CTIIHYNYMCN [TP53_Y234_T231I] | 0.633 | 0.723 | 0.583 | 0.798 | 0.521 | 0.588 | 0.963 | 0.534 | 0.419 | 0.452 | 0.829 | 1 | 0.694 | 2.11 | 1.76 | 1.76
2 | CTLNVYRQLHN [LUZP1_Y1036_S1034N] | 0.516 | 0.753 | 0.558 | 0.749 | 0.551 | 0.459 | 1.05 | 0.739 | 0.475 | 0.473 | 1 | 1.28 | 0.585 | 0.382 | 0.796 | 0.708
3 | CTTIHNNYMCN [TP53_Y234_Y234N] | 0.383 | 0.44 | 0.423 | 0.452 | 0.423 | 0.432 | 0.712 | 0.63 | 0.379 | 0.385 | 0.61 | 0.725 | 0.456 | 0.914 | 0.987 | 1.27
4 | CTTIHYNCMCN [TP53_Y234_Y236C] | 0.541 | 0.591 | 0.417 | 0.715 | 0.475 | 0.45 | 1.06 | 0.689 | 0.426 | 0.468 | 0.885 | 1.08 | 0.712 | 0.508 | 0.775 | 0.823
5 | CTTIHYNFMFN [TP53_Y234_C238F_YF] | 0.789 | 0.786 | 0.676 | 0.945 | 0.569 | 0.52 | 1.27 | 1.04 | 0.595 | 0.586 | 1.34 | 1.61 | 0.684 | 0.756 | 0.975 | 1.08
6 | CTTIHYNHMCN [TP53_Y234_Y236H] | 0.369 | 0.445 | 0.432 | 0.506 | 0.414 | 0.455 | 0.692 | 0.574 | 0.476 | 0.422 | 0.688 | 0.796 | 0.456 | 1.7 | 1.22 | 1.24
7 | CTTIHYNSMCN [TP53_Y234_Y236S] | 0.467 | 0.514 | 0.486 | 0.627 | 0.561 | 0.464 | 0.849 | 0.544 | 0.42 | 0.396 | 0.603 | 0.905 | 0.645 | 2.42 | 1.01 | 1.06
8 | CTTIHYNYMCK [TP53_Y234_N239K] | 0.5 | 0.54 | 0.547 | 0.61 | 0.473 | 0.482 | 0.736 | 0.551 | 0.456 | 0.371 | 0.674 | 0.826 | 0.562 | 3.07 | 1.45 | 1.64
9 | CTTIHYNYMCT [TP53_Y234_N239T] | 0.915 | 2.71 | 0.899 | 0.817 | 0.545 | 0.569 | 0.936 | 0.656 | 0.784 | 0.5 | 0.657 | 1 | 1.02 | 4.38 | 1.42 | 2.78
10 | CTTIHYNYMGN [TP53_Y234_C238G] | 0.763 | 0.85 | 0.532 | 0.653 | 0.462 | 0.402 | 0.915 | 0.657 | 0.633 | 0.425 | 0.865 | 0.987 | 0.62 | 1.3 | 0.926 | 0.842
11 | CTTILYNYMCN [TP53_Y234_H233L] | 1.2 | 0.958 | 0.94 | 0.894 | 1.14 | 0.745 | 1.18 | 0.615 | 2.36 | 1.24 | 1.16 | 1.06 | 0.766 | 2.4 | 1.78 | 1.9
12 | CVGGFYGGCNE [CTSC_Y352_Y347C] | 0.566 | 0.548 | 0.439 | 0.653 | 0.838 | 0.678 | 0.81 | 0.471 | 0.585 | 1.88 | 0.636 | 0.854 | 0.625 | 0.908 | 1.01 | 0.748
13 | DAASNYARGHY [TUBA3E_Y103] | 0.342 | 0.383 | 0.495 | 0.463 | 0.475 | 0.353 | 0.522 | 0.533 | 0.44 | 0.43 | 0.428 | 0.519 | 0.524 | 0.524 | 0.784 | 0.743
14 | DDEESYENVPR [FCRL3_Y722_N721S] | 0.427 | 0.466 | 0.475 | 0.666 | 0.481 | 0.516 | 1.12 | 0.687 | 0.47 | 0.462 | 1.06 | 0.969 | 0.548 | 0.672 | 0.935 | 0.77
15 | DDSSAYRSVDE [BCKDHA_Y345] | 0.721 | 0.671 | 0.569 | 0.707 | 0.553 | 0.547 | 1.16 | 1.01 | 0.485 | 0.568 | 1.12 | 1.29 | 0.528 | 0.886 | 0.794 | 0.765
16 | DEDFLCREELA [POR_Y575_Y575C_YF] | 0.486 | 0.701 | 0.572 | 0.846 | 0.629 | 0.528 | 1.25 | 0.821 | 0.501 | 0.613 | 1.33 | 1.38 | 0.657 | 0.543 | 0.8 | 0.734
17 | DEEDFYQGSME [ASCC1_Y36] | 0.798 | 0.761 | 0.549 | 0.953 | 0.654 | 0.598 | 1.46 | 0.889 | 0.524 | 0.603 | 1.54 | 1.54 | 0.595 | 0.427 | 0.572 | 0.575

Row | Sequence | phosphorylation enrichment [1] | phosphorylation enrichment [2] | phosphorylation enrichment [3] | phosphorylation enrichment [4] | phosphorylation enrichment [5] | phosphorylation enrichment [6] | phosphorylation enrichment [7] | phosphorylation enrichment [8] | phosphorylation enrichment [9] | phosphorylation enrichment [10] | phosphorylation enrichment [11] | phosphorylation enrichment [12] | phosphorylation enrichment [13] | SH2 binding enrichment [14] | SH2 binding enrichment [15] | SH2 binding enrichment [16]
18 | DENWFYTRAAS [RPS19_Y54] | 0.45 | 0.547 | 0.402 | 0.673 | 0.382 | 0.454 | 1.13 | 1.34 | 0.401 | 0.418 | 1.11 | 1.11 | 0.517 | 0.661 | 0.821 | 0.816
19 | DENWFYTRPAS [RPS19_Y54_A57P] | 0.676 | 0.59 | 0.496 | 0.734 | 0.565 | 0.497 | 1.46 | 0.673 | 0.477 | 0.489 | 1.43 | 1.07 | 0.55 | 1.01 | 0.78 | 0.672
20 | DESEDCRDTVV [CNNM3_Y456_Y456C] | 0.515 | 0.788 | 0.589 | 0.723 | 0.587 | 0.528 | 1.22 | 0.777 | 0.518 | 0.474 | 1.03 | 1.11 | 0.597 | 0.672 | 0.97 | 0.887
21 | DFLSSYSAVNE [OAT_Y85_Q90E] | 0.525 | 0.504 | 0.55 | 0.685 | 0.554 | 0.531 | 0.896 | 0.566 | 0.49 | 0.468 | 0.745 | 0.953 | 0.596 | 2.35 | 0.864 | 0.902
22 | DFPGNYSGFDD [POLR1C_Y33_YF] | 0.408 | 0.927 | 0.456 | 0.637 | 0.481 | 0.55 | 0.858 | 0.588 | 0.376 | 0.548 | 0.676 | 0.899 | 0.531 | 0.806 | 0.839 | 0.815
23 | DGDTRYSTFSE [TKTL1_Y318] | 0.481 | 0.609 | 0.41 | 0.669 | 0.559 | 0.467 | 0.837 | 0.764 | 0.451 | 0.5 | 0.849 | 0.879 | 0.487 | 2.62 | 0.978 | 1.82
24 | DHKRQYELLKL [KIF4B_Y684_R680H] | 0.505 | 0.448 | 0.342 | 0.52 | 0.415 | 0.395 | 0.472 | 0.511 | 0.367 | 0.411 | 0.514 | 0.697 | 0.429 | 2.31 | 0.79 | 0.76
25 | DHTVNYVLKCR [PLEKHG4_Y1068_R1064H] | 0.512 | 0.699 | 0.602 | 0.855 | 0.532 | 0.479 | 1.18 | 0.859 | 0.419 | 0.409 | 1.09 | 1.38 | 0.677 | 0.346 | 0.67 | 0.63
26 | DKMEAYNIDET [TEKT4_Y210] | 0.584 | 0.604 | 0.56 | 0.83 | 0.583 | 0.568 | 1.32 | 0.755 | 0.459 | 0.492 | 1.04 | 1.29 | 0.618 | 0.528 | 0.82 | 0.685
27 | DLDTDYGSGYP [RNASEH2A_Y206] | 0.682 | 0.691 | 0.689 | 0.879 | 0.589 | 0.852 | 1.36 | 1.21 | 0.554 | 0.652 | 1.14 | 1.47 | 0.648 | 0.439 | 0.816 | 0.565
28 | DLRTGYSVPYG [TGM1_Y370_Y365D] | 0.456 | 0.409 | 0.553 | 0.592 | 0.459 | 0.392 | 0.721 | 0.568 | 0.399 | 0.384 | 0.663 | 0.665 | 0.411 | 9.61 | 0.906 | 0.717
29 | DMLTLYVNTAA [SMCHD1_Y403_Q400L] | 0.535 | 0.758 | 0.569 | 0.855 | 0.557 | 0.457 | 1.4 | 0.766 | 0.444 | 0.524 | 1.13 | 1.36 | 0.775 | 0.646 | 5.64 | 0.993
30 | DNAFQYMLTDR [MYH7_Y164_YF] | 0.472 | 0.44 | 0.461 | 0.584 | 0.494 | 0.47 | 0.955 | 0.47 | 0.374 | 0.543 | 0.738 | 1.02 | 0.496 | 0.685 | 0.923 | 0.767
31 | DNAYQYMLTDR [MYH7_Y164] | 2.74 | 0.61 | 3.6 | 2.3 | 0.608 | 0.658 | 1.23 | 0.526 | 1.27 | 0.767 | 0.85 | 0.859 | 0.461 | 1.34 | 0.7 | 0.664
32 | DPGVSYCTREE [PDHA1_Y301_R302C] | 0.481 | 0.643 | 0.576 | 1.12 | 0.688 | 0.606 | 1.12 | 0.714 | 0.451 | 0.449 | 1.1 | 1.12 | 0.749 | 0.581 | 1.08 | 0.968
33 | DPNQQYYIAMD [TBX15_Y159_H156N] | 0.487 | 0.875 | 3.98 | 2.95 | 0.613 | 0.566 | 1.12 | 0.571 | 1.65 | 0.812 | 0.959 | 0.992 | 0.719 | 1.44 | 0.881 | 0.628
